Measurements taken from paper PMC9744130.

Biological target: BtAAV-10HB capsid viral proteins (VP1, VP2, VP3) assembled as the capsid (bat adeno-associated virus BtAAV-10HB)
Test: cryo-EM structure

BtAAV-10HB capsid viral proteins (VP1, VP2, VP3) assembled as the capsid (complex)
stoichiometry N: 60
